Here are results for 1 molecule from patent US8889621B2, “Inhibiting binding of FGF23 to the binary FGFR-Klotho complex for the treatment of hypophosphatemia” (New York University, priority 2009, dated 2014).

The target of the assay is T1, Klotho ectodomain (Mus musculus, UniProt O35082).
T1 construct: The ectodomain of murine Klotho (A35 to K982) was purified from culture media; FLAG (C); made in house; host or cells: HEK293 (secreted into culture media)
T1 sequence (O35082 35-982): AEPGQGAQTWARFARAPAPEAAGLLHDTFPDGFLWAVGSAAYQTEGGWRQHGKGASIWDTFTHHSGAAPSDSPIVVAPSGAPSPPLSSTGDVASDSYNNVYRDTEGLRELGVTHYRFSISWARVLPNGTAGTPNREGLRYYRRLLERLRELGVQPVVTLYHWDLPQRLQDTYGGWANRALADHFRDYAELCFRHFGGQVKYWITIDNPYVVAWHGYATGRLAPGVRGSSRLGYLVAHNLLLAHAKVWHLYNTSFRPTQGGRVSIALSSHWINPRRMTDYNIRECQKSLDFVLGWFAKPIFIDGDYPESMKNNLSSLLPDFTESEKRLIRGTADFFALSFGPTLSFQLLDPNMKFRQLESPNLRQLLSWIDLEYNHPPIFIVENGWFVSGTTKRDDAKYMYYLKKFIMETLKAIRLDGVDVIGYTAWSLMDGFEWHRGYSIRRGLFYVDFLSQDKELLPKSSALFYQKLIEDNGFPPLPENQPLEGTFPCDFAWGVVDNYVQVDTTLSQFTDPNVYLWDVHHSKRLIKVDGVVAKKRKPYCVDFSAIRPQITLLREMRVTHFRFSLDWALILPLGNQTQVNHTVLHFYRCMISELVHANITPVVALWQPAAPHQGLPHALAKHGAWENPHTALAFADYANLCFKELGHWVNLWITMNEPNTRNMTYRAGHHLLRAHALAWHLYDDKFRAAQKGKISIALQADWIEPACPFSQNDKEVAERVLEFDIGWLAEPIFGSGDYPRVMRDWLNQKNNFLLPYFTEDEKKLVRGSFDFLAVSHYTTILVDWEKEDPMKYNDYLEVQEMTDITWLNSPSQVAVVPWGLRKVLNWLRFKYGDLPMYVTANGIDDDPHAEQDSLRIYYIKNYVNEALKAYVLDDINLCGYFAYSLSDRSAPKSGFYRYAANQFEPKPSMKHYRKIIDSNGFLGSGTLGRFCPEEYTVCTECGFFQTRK
As to the kind of experiment: SPR: Klotho ectodomain passed over immobilized FGF23. In kind it is binding, murine. Here is the method: Surface plasmon resonance (SPR) spectroscopy experiments were performed on a Biacore 2000 instrument (Biacore AB), and FGF23-FGFR1c-Klotho interactions were studied at 25° C. in HBS-EP buffer (10 mM HEPES-NaOH, pH 7.4, 150 mM NaCl, 3 mM EDTA, 0.005% (v/v) polysorbate 20). Proteins were immobilized by amine coupling on flow channels of research grade CM5 chips (Biacore AB). Proteins were injected over a CM5 chip at a flow rate of 50 μl min^−1, and at the end of each protein injection (180 s), HBS-EP buffer (50 μl min^−1) was flowed over the chip to monitor dissociation for 180 s. The chip surface was then regenerated by injecting 50 μl of 2.0 M NaCl in 10 mM sodium acetate, pH 4.5. To control for nonspecific binding in experiments where Klotho ectodomain was immobilized on the chip, β-glucuronidase was coupled to the control flow channel of the chip (˜26-32 fmole/mm^2). […] The data were processed with BiaEvaluation software (Biacore AB). For each protein injection over a Klotho chip, the nonspecific responses from the β-glucuronidase control flow channel were subtracted from the responses recorded for the Klotho flow channel. Similarly, for each protein injection over a FGF chip, the nonspecific responses from the FHF1B control flow channel were subtracted from the responses recorded for the FGF flow channel. […]
For orientation: In SPR one partner is held on a chip, and binding of the other changes the refractive index at the surface.

B1: FGF23^28-251: human FGF23 (A28 to I251), bioactive full-length ligand expressed in E. coli (protein, listed as Homo sapiens)
chain: ASPLLGSSWGGLIHLYTATARNSYHLQIHKNGHVDGAPHQTIYSALMIRSEDAGFVVITGVMSRRYLCMDFRGNIFGSHYFDPENCRFQHQTLENGYDVYHSPQYHFLVSLGRAKRAFLPGMNPPPYSQFLSRRNEIPLIHFNTPIPRRHTRSAEDDSERDPLNVLKPRARMTPAPASCSQELPSAEDNSPMASDPLGVVRGGRVNTHAGGTGPEGCRPFAKFI
For the molecule B1, the “binding of Klotho ectodomain to immobilized FGF23” value is reported as “bound poorly”.
